Literature values as cited in publication PMC6353226.
pKd: −log10 of the molar value.

Key:
[1] = molecular target: IGF1R pY1165 (Homo sapiens) (UniProt P08069)
[2] = molecular target: IGF1R pY1161 (Homo sapiens) (UniProt P08069)

For YES1 SH2 (from UniProt P07947), the pKd [1] is listed as 6.05 and the pKd [2] is listed as 6.05.
